In patent US6464983:

Tests used:
[1] = biological target: high affinity CTGF receptors on primary rat articular chondrocytes (rat); experiment: 125I-rhCTGF binding to cell monolayers, Scatchard / competition with unlabeled CTGF
[2] = biological target: high affinity CTGF receptors on NRK-49F rat fibroblasts (rat); experiment: as above
[3] = biological target: low affinity CTGF receptors on primary rat articular chondrocytes (rat); experiment: as above
[4] = biological target: low affinity CTGF receptors on NRK-49F rat fibroblasts (rat); experiment: as above
[5] = biological target: high affinity CTGF receptors on mouse fibroblasts (NTH3T3) (mouse); experiment: 125I-rhCTGF binding to cells, competition binding assay
[6] = biological target: low affinity CTGF receptors on mouse fibroblasts (NTH3T3) (mouse); experiment: as above

- Kd [1]: 0.021 nM
- Kd [2]: 0.013 to 0.023 nM
- Kd [3]: 1 nM
- Sites/cell [3]: 150000 sites/cell
- Kd [4]: 1.1 to 2.2 nM
- Kd [5]: 0.005 to 0.01 nM
- Sites/cell [5]: 480 sites/cell
- Kd [6]: 1.8 nM
- Sites/cell [6]: 102000 sites/cell
Substance: iodinated recombinant human Connective Tissue Growth Factor (rhCTGF) (from UniProt P29279 27-349) (ligand)
